The record followed here is patent US7427404.

The assay concerns the target monoclonal anti-S1 antibody 1B7. As to the kind of experiment: competition RIA: 1B7 coated on plate, 125I-PT displaced by unlabelled toxin.
The substance “PT-13L/129G (from UniProt P04978 28-226; P04979 29-227; P0A3R5 43-152; P04981 35-133)” came in with a Ka of 1.3e+08 M⁻¹. On to “PT-26I/129G (from UniProt P04978 28-226; P04979 29-227; P0A3R5 43-152; P04981 35-133)”, for which the Ka came to 5.5e+07 M⁻¹. Substance “PT-129G (from UniProt P04978 28-226; P04979 29-227; P0A3R5 43-152; P04981 35-133)” registered a Ka of 2.1e+08 M⁻¹.
